Test results reported in publication PMC10148159, “Visualizing the coordination of apurinic/apyrimidinic endonuclease (APE1) and DNA polymerase β during base excision repair”.

What was measured:
APE1 [1] = target: T1, APE1 (Homo sapiens, UniProt P27695 1-318); assay: single-molecule TIRF; 2.5 mM EDTA; mean lifetime T2 12.4 s; 50 mM Hepes pH 7.4, 150 mM NaCl, 0.1 mg/ml BSA, 0.8% glucose, 2.5 mM EDTA, ~10 mM Trolox, catalase 0.04 mg/ml, glucose oxidase 1 mg/ml; room temperature; protein 0.1 nM (binary) or 1.5 nM each (ternary); details: protein: recombinant; tags: Cy3 NHS ester dye (about 2.1-2.4 labels per protein); label: 5'-biotin on strand 1 (immobilized); blunt outer ends; nicked
[2] = target: T2, DNA polymerase beta (Pol β) (Homo sapiens, UniProt P06746 1-335); assay: single-molecule TIRF; 2.5 mM EDTA; mean lifetimes T2 7.4 s, T3 33.7 s; 50 mM Hepes pH 7.4, 150 mM NaCl, 0.1 mg/ml BSA, 0.8% glucose, 2.5 mM EDTA, ~10 mM Trolox, catalase 0.04 mg/ml, glucose oxidase 1 mg/ml; room temperature; protei
[3] = target: T2, DNA polymerase beta (Pol β); assay: single-molecule TIRF; 2.5 mM EDTA; mean lifetime T2 19.8 s; 50 mM Hepes pH 7.4, 150 mM NaCl, 0.1 mg/ml BSA, 0.8% glucose, 2.5 mM EDTA, ~10 mM Trolox, catalase 0.04 mg/ml, glucose oxidase 1 mg/ml; room temperature; protei
APE1 [4] = target: T1, APE1; assay: single-molecule TIRF; 2.5 mM EDTA; mean lifetimes T2 4.3 s, T3 30.9 s; 50 mM Hepes pH 7.4, 150 mM NaCl, 0.1 mg/ml BSA, 0.8% glucose, 2.5 mM EDTA, ~10 mM Trolox, catalase 0.04 mg/ml, glucose oxidase 1 mg/ml; room temperature; protein 0.1 nM (binary) or 1.5 nM each (ternary); details: protein: recombinant; tags: Cy3 NHS ester dye (about 2.1-2.4 labels per protein); label: 5'-biotin on strand 1 (immobilized); blunt outer ends; 1-nt gap opposite G of template
APE1 [5] = target: T1, APE1; assay: single-molecule TIRF; 2.5 mM EDTA; mean lifetime T2 22.8 s; 50 mM Hepes pH 7.4, 150 mM NaCl, 0.1 mg/ml BSA, 0.8% glucose, 2.5 mM EDTA, ~10 mM Trolox, catalase 0.04 mg/ml, glucose oxidase 1 mg/ml; room temperature; protein 0.1 nM (binary) or 1.5 nM each (ternary); details: protein: recombinant; tags: Cy3 NHS ester dye (about 2.1-2.4 labels per protein); label: 5'-biotin on strand 1 (immobilized); blunt

B1: 3' nick 25-mer (dsDNA)
DNA 1: TGTGTGGAATACAGTGAGCGCAACG
DNA 2: CGTTGCGCTCAC
DNA 3: TGTATTCCACACA
modifications: 5'-phosphate on 13-mer; 3'-OH on 12-mer
binding result (APE1 [1]): binds
binding result [2]: binds

B2: 1-nt gap 25-mer (dsDNA)
DNA 1: TGTGTGGAATACAGTGAGCGCAACG
DNA 2: CGTTGCGCTCA
DNA 3: TGTATTCCACACA
modifications: 5'-phosphate on 13-mer
binding result [3]: binds
binding result (APE1 [4]): binds

B3: undamaged DNA 25-mer (dsDNA)
DNA 1: TGTGTGGAATACAGTGAGCGCAACG
DNA 2: CGTTGCGCTCACTGTATTCCACACA
binding result (APE1 [5]): binds
